Tests used:
Experiment in all cases: BLI, IgG
[1] = target: RSV prefusion F (preF), subtype A (respiratory syncytial virus, subtype A, UniProt P03420 26-513)
[2] = target: T1, RSV postfusion F (postF), subtype A (respiratory syncytial virus, subtype A, UniProt P03420 26-513)
T1 construct: also called F ΔFP; Postfusion subtype A

[3] = target: RSV prefusion F (preF), subtype B (respiratory syncytial virus, subtype B)
[4] = target: T2, RSV postfusion F (postF), subtype B (respiratory syncytial virus, subtype B)
T2 construct: also called F ΔFP; Postfusion subtype B

Binder | Kd [1] | Kd [2] | Kd [3] | Kd [4]
ADI-20975 (antibody, V domains shown) VH: QVQLVESGTHVKKPGASVKVSCEASDDTFNNKGIVWVRQAPGQGLEWMGWIRPNNGNTKYAQKFQGRVTMTTDASTNTAYMELRSLRSGDTAVYYCAREQFKWNDFYFDYWGQGILVTVSS VL: SYELMQPPSVSVAPGQTATITCGGSNIGSETVHWYQQKPGQAPVLVVHDDTDRPSGIPERFSGSNSGNTATLTISGVEAGDEADFYCQVRDSRTDDVVFGGGTKLTVL | 0.092 nM | 0.146 nM | 0.0958 nM | 0.129 nM
ADI-21001 (antibody, V domains shown) VH: EVQLVESGPGLVKPSETLSLTCTVSGGSISDIDYYWGWIRQPPGKGLEWIGSIYYSGSTYYNPSLESRVTISVDTSKNQFSLKLRSVSAADTALYHCARHGPPWVVTAIRGHAFDVWGQGTTVTVSS VL: not shown | 2.12 nM | 0.277 nM | 1.85 nM | 0.302 nM
ADI-20963 (antibody, V domains shown) VH: EVQLVESGGGLAKPGGSLRLSCAASGFTFSHYNMNWVRQAPGKGLEWVSSISSTGFHIYYADSVKGRFVISRDNAENSLHLQMNSLRADDTGLYYCVRAEYYYGSGSAGHYFDSWGQGTLVTVSS VL: SYVLTQPPSVSVAPGHTAKITCGGSIIGTKSVHWYQQKPGQAPVLVVYDDSDRPSGIPERLSGSRSGNTATLTITRVEAGDEADYYCQVWDSSSEHAGVFGGGTKLTVL | 0.791 nM | 0.0909 nM | 3.14 nM | 0.614 nM
ADI-21000 (antibody, V domains shown) VH: EVQLVESGPVLVKPRGTLTLTCTVSGFSLSDARMGVSWIRQPPGKALEWLAHIFWDDEKSYSTSLKNRLTISKDTSRGQVVLRMTNMDPVDTGTYFCARVNTYHSGGYYLYYFDVWGQGTLVTVSS VL: EIVLTQSPSSLSASVGDRVTITCRASQIIASYLNWYQQKPGQAPKLLIYAASSLQSGVPSRFSGSGSGTDFTLTISSLQPEDFATYYCQQSYSTRMYTFGQGTKVEIK | 1.49 nM | 0.295 nM | 1.3 nM | 0.602 nM
ADI-20967 (antibody, V domains shown, also called Ab 220) VH: EVQLLESGGGVVQPGRSVRLSCAASGFSFSSYALHWVRQAPGKGLEWVGVIWYEESNKYYADPVKGRFTISRDNSKNTLYLQMNSLRDEDTAVYYCARKGVATAGLDYWGQGTLVTVSS VL: not shown | 2.23 nM | 0.257 nM | 4.08 nM | 3.45 nM
ADI-20972 (antibody, V domains shown) VH: QVQLQQWGAGLLRPSETLSLTCAVSGGSFSGHYWSWIRQPPGKGLEWIGGINHSGNTNYSPSLRSRVTMSVDTSRNQFSLMLRSVTAADTAVYFCARNVPNLYGDYPRWFDPWGQGTLVTVSS VL: QSVLTQPASVSGSPGQSITISCTGTSSDVGGFNYVSWYQHHPGKAPKLMIYDVNNRPSGASNRFSGSKSGNTASLTISGLQAEDEADYYCSSYRSSDTLYVFGTGTKVTVL | 0.888 nM | 0.401 nM | 6.06 nM | 3.48 nM
ADI-20990 (antibody, V domains shown) VH: EVQLVESGGGVVQPGRSLRLSCSASGFPFHSYAMHWVRQAPGKGLEWVAGIWYEGSSESYADSVKGRLTISRDNSRNTLYLQMNSLRVEDTAVYYCARRGSFSGFDSWGQGSLVTVSS VL: DIVMTQSPLSLPVTPGEPASISCRSSQSLLHSNGYNYLDWYLQKPGQSPQLLISLGSNRASGVPDRFSGSVAGTDFTLKISRVEAEDVGVYYCMQSSQTPYTFGQGTKVDIK | 1.58 nM | 0.178 nM | 0.904 nM | 0.312 nM
ADI-20989 (antibody, V domains shown) VH: EVQLLESGPGLVKPSGTLSLTCAVSGGSIINSNWWSWVRQSPGKGLEWIGDIYHSGSTTYNPSLKSRVTISVDRSKNQYSLRLTSVTAADTAVYYCAKIGPDNRSGPDYYYFMDVWGKGTTVTVSS VL: EIVLTQSPSSLPASVGDRVTISCRASQSISNYVYWYQQKPGKAPKLLIYAASSLQSGVPSRFSGSGSGTDFTLSISSLQFEDFATYFCQQSYSTPPTFGQGTKLEIK | 4.8 nM | 0.428 nM | 6.29 nM | 0.809 nM
ADI-20996 (antibody, V domains shown) VH: QVQLVESGPALVKPTQTLTLTCTFSGFSLTTRGMCVSWIRQPPGKALEWLARIDWDDDKYYSTSLKTRLTISKDTSKNQVVLTMTNMDPVDTATYYCARASTLTTAGYYLHYKDVWGNGTTVTVSS VL: DIRMTQSPSSLSASVGDRVTITCRASQSIGTYLNWFQQKPGKAPNLLIYAASILHSGVPSRFSGSGSGTDFTLTIRTLQPEDFATYYCQQSYPTVTFGQGTKVEIK | 1.03 nM | 0.204 nM | 1.06 nM | 1.12 nM
ADI-20968 (antibody, V domains shown) VH: QVQLQQWGAGLLKPSETLSLTCAMYGGSFSDDYWSWIRQPPGKGLEWIGEVNHGGSTNYNTSLKSRVTISADTSKKQFSLKLRSVTAADTAVYFCARGWRYCNATTCYSKAFDIWGQGTMVTVSS VL: DIQMTQSPSSLSASVGDRVTITCQASQDIDIYLIWYQQKPGRAPKLLIYDASNLKTGVPSRFSGSGSGTEFTFTINNLQPEDFATYYCQQFHDLPLTFGGGTKLEIK | 0.135 nM | 0.157 nM | 0.127 nM | 0.15 nM
ADI-20981 (antibody, V domains shown) VH: QVQLQESGPRLVKPSETLSLTCTVSGDSISSRNYFWAWIRQPPGKGLEWIGTIYYSGNTYSNPSLKSRVTISVDTSKKQFSLNLSSVTAADTAVYYCARGAYGGDAFDIWGQGTVVTVSS VL: DIRVTQSPSSVSASVGDRVTITCRASQGIGTWLAWYQQKPGKAPHLLIYAASRLQSGVPSRFSGSGSGTDFTLSISSLHPEDFATYYCQQAYAFPRTFGQGTKVEIK | 2.34 nM | 0.233 nM | 2.14 nM | 0.295 nM
ADI-20960 (antibody, V domains shown) VH: QVQLQQWGAGVLKPSETLSLTCAVNGRSLSGHYWSWIRQTPGKGLEWIGEINNSGGTHYSPSLKSRVIISGDTAKNQLSLKLSSVTAADTAVYYCAKGSAEWYFDLWGRGTLVTVSS VL: DIRVTQSPSTLSASVGDRVTITCRASQSVSTWLAWYQQKPGKPPSLLIFKASTLESGVPSRFSGSGSGTEFTLTISSLQPDDFATYYCQQYNTYSPWTFGPGTKVEIK | 0.22 nM | 0.163 nM | 0.23 nM | 0.163 nM
ADI-20993 (antibody, V domains shown) VH: EVQLVESGGGVVQPGRSLRLTCAASGFPFSSYAMHWVRQAPGKGLEWVAVTWYDGPNRDYADSVKGRFTVSRDNSKNTLYLQMTSLRADDTAVYYCARRGSWGSFDYWGQGTLVTVSS VL: DIVMTQSPLSLSATPGEPASISCRPSQSLLHSNGYNYLEWYLQKPGQSPQLLIYLGSNRASGVPDRFSGGGSGTDFTLRISRVEADDVGVYYCMQASQTPYTFGQGTKVEIK | 1.38 nM | 0.168 nM | 0.742 nM | 0.273 nM
ADI-20976 (antibody, V domains shown) VH: QVQLVESGGDLVQKGGSLRLSCAASGFTFDNYAMTWIRQAPGQGLEWVSTVSGFVLGTGYTTYYADSVKGRFTISRDSSKNTVYLQLNSLRAEDTAVYYCAKCAATRNECLWDYLQQWGQGTTVTVSS VL: EIVMTQSPSSLSASVGDRVTITCRASQSVSIYLNWYQQKGGKAPKLLIYGASALQRGVPSRFSGSGSGTDFTLTITSLQPEDFATYFCHQSYSAPQTFGQGTKVDIK | 1.86 nM | 0.263 nM | 0.955 nM | 0.304 nM

Source: patent US20260258115A1 (MAPP BIOPHARMACEUTICAL, published 2026)
